Measured values from paper PMC11336900, “Nanobody‐Engineered Biohybrid Bacteria Targeting Gastrointestinal Cancers Induce Robust STING‐Mediated Anti‐Tumor Immunity” (Advanced Science, 2024).

Key:
[1] = molecular target: T1, murine CDH17 protein fragment, domain 1–3 (Mus musculus, UniProt Q9R100); test: SPR; affinity determination of nanobodies against human and murine CDH17 proteins; details: both partners purified
T1 construct: cadherin 17 (CDH17), mouse, domain 1–3; also called mouse CDH17; source: E. coli BL21(DE3), purified (Ni-NTA, gel filtration)

[2] = molecular target: T2, human CDH17 protein fragment, domain 1–3 (Homo sapiens, UniProt Q12864); test: as above; details: both partners purified
T2 construct: cadherin 17 (CDH17), human, domain 1–3; also called cadherin 17; CDH17 antigen; source: E. coli BL21(DE3), purified (Ni-NTA, gel filtration)
T2 sequence (Q12864 whole entry, looked up, the tested form may be a part): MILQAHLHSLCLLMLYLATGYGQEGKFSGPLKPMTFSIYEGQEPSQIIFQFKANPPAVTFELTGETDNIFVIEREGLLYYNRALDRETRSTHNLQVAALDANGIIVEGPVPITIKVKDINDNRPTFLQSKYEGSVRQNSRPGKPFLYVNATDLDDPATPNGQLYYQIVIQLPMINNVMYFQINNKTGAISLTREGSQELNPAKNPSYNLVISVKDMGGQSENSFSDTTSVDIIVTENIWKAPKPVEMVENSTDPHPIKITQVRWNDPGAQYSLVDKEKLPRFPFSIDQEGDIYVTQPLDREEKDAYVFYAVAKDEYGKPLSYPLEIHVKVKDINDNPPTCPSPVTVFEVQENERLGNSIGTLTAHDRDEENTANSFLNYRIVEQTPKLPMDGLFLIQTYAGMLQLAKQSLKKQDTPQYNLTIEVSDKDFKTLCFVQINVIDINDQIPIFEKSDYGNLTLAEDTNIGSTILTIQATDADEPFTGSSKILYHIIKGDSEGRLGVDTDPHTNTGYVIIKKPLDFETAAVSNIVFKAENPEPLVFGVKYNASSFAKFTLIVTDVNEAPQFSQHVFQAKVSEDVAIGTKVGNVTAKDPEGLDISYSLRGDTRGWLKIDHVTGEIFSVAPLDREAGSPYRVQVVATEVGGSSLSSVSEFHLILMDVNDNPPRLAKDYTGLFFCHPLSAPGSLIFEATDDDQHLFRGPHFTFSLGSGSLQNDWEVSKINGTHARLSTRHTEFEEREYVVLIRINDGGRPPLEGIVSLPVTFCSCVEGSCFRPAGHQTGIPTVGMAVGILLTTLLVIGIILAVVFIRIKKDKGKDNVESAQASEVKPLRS

T1 sequence (Q9R100 whole entry, looked up, the tested form may be a part): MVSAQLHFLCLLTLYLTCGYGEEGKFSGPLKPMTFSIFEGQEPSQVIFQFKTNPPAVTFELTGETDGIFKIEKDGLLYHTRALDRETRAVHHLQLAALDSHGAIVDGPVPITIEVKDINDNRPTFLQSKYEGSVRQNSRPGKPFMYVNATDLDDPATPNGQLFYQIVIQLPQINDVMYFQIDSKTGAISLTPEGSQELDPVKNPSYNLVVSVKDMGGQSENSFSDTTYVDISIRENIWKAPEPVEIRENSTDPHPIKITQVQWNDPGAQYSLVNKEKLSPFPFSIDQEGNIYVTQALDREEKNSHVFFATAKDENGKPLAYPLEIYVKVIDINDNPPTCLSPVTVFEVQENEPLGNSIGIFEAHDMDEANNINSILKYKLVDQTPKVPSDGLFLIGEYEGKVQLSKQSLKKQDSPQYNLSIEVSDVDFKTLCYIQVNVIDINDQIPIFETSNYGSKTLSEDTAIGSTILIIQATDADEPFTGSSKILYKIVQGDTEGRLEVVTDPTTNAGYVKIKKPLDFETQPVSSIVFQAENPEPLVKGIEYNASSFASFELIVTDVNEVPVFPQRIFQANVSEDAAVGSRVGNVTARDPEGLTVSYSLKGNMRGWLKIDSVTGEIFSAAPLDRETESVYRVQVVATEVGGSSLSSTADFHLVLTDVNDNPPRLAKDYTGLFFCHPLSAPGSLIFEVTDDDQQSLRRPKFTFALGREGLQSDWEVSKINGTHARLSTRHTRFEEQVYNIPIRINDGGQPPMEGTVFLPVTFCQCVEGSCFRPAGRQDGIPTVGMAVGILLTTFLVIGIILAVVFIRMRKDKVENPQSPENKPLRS

Kd [1] | Kd [2] | Binder
109 nM | 60.1 nM | CDH17 nanobody Nb535 (VHH, source: prokaryotic vector pColdII (TAKARA), purified (Ni-NTA); not shown: HA, C-terminal, kept) VHH: AVQLVESGGGLVQPGGSLRLSCAASGRTFSSNGMGWFRQAPGKGREFVAAISWNAGTTLYTDSVKGRFTISRDNAKNTVYLQMNSLKPEDTAIYYCAAREYYGGSYYPSREYEYGYWGQGTQVTVSS
32.5 nM | 20.1 nM | CDH17 nanobody Nb289 (VHH, as the VHH of m5 (A1) with one amino acid difference at position 44; also called Nb289 nanobody; source: prokaryotic vector pColdII (TAKARA), purified (Ni-NTA); not shown: HA, C-terminal, kept) VHH: AVQLVESGGGLVQAGDSLRLSCAASGRTFSSNGMGWFRQAPGTGREFVAAISWNAGTTLYTDSVKGRFTISRDNAKNTVYLQMNSLKPEDTAIYYCAAREYYGGSYYPSREYEYGYWGQGTQVTVSS
